Measurements taken from paper PMC8585875.

How the values were obtained:
[1] = biological target: H6-Rap80(1-137)-7A-Linker (human) (UniProt Q96RL1); assay: pull-down; H6-Rap80(1-137)-7A-Linker on Ni-NTA agarose; 3.5 µM hybrid chain in 50 µl; 50 mM TRIS pH 7.5, 150 mM NaCl, 2 mM TCEP, 0.1% NP-40; 1 h at 4 °C; Coomassie SDS-PAGE, densitometry normalised to Rap80
[2] = biological target: H6-Rap80(35-124)-S18C-C70S-C121S-7A-Linker, Atto488-labelled (human) (UniProt Q96RL1); assay: fluorescence polarisation; fluorescence anisotropy; hybrid chain titrated to 300 nM Atto488-labelled Rap80(35-124); 20 mM Tris pH 6.8, 100 mM NaCl, 4 mM DTT; single-site binding model

Substance	fold affinity against the linearly linked hybrid chain (densitometry of the pull-down) [1]	Kd [2]
K63-diUb-K21-SUMO2 hybrid chain (Srt2A/Srt5M-generated) (from UniProt P0CG48 1-76; P0CG48 1-76; P61956 1-95) (complex)	2 fold	–
linear diUb-SUMO2 hybrid chain, wt/LPT-linked (from UniProt P0CG48 1-76; P0CG48 1-76) (complex)	–	1200 nM
